The labels stand for the following.
B2: ICOS-L variant Y8_P51Q (ligand)
chain: DTQEKEVRAMVGSDVELSCACPEGSRFDLNDVYVYWQTSESKTVVTYHIPQNSSLEHVDSRYRNRALMSPAGMLRGDFSLRLFNVTPQDEQKFHCLVLSQSLGFQEVLSVEVTLHVAANFSVPVVSAPHSPSQDELTFTCTSINGYPRPNVYWINKTDNSLLDQALQNDTVFLNMRGLYDVVSVLRIARTPSVNIGCCIENVLLQQNLTVGSQTGNDIGERDKITENPVSTGEKNAAT
notes: P51 of Y8 put back to Q; keeps N57H only
B4: ICOS-L variant Y8_H57N (ligand)
chain: DTQEKEVRAMVGSDVELSCACPEGSRFDLNDVYVYWQTSESKTVVTYHIPPNSSLENVDSRYRNRALMSPAGMLRGDFSLRLFNVTPQDEQKFHCLVLSQSLGFQEVLSVEVTLHVAANFSVPVVSAPHSPSQDELTFTCTSINGYPRPNVYWINKTDNSLLDQALQNDTVFLNMRGLYDVVSVLRIARTPSVNIGCCIENVLLQQNLTVGSQTGNDIGERDKITENPVSTGEKNAAT
notes: H57 of Y8 put back to N
B5: Dimeric human ICOS (ICOS-Fc) (Fc fusion, UniProt Q9Y6W8 21-140, looked up)
chain: EINGSANYEMFIFHNGGVQILCKYPDIVQQFKMQLLKGGQILCDLTKTKGSGNTVSIKSLKFCHSQLSNNSVSFFLYNLDHSHANYYFCNLSIFDPPPFKVTLTGGYLHIYESQLCCQLK
notes: range 21-140; Fc at the C-terminus of ICOS to induce dimerization; Labeled with Alexa488 when used as probe in the flow cytometry on yeast; also called ICOS-Fc dimer protein; ICOS dimer protein; not shown: GS linker of glycine and serine; Fc region (domain) of human IgG antibody

Assay [1] has as its target B5. The experiment in a line: bio-layer interferometry (Octet R8); fold gain of KD over wild-type ICOS-L as printed in the table.
Assay [2] has as its target B5. The experiment in a line: ELISA, ICOS-Fc coated at 4 ug/ml, ICOS-L variant titrated, anti-His-HRP (x axis printed as PD-L1 CO…ON (nM)). As to the method:
(§1) After washing four times, 50 μl of an anti-His-HRP conjugate was added and reacted at room temperature for 1 hour, and then washed four times. Thereafter, 50 μl of a 1-Step Ultra TMB-ELISA substrate solution (Thermo Fisher Scientific, 34028) was added to develop color, and then added with 50 μl each of 2 M H₂SO₄ to terminate the reaction, and then analyzed using an Epoch microplate spectrophotometer (BioTek).

Assay [3] has as its target B5. The assay can be described thus: bio-layer interferometry (Octet R8), ICOS-Fc captured on Protein A biosensor, ICOS-L variant in solution; the table prints no units.
In assay [4] the target is B5. The experiment in a line: ELISA, ICOS-Fc coated at 4 ug/ml, ICOS-L variant titrated, anti-His-HRP. The procedure: as §1
The assay “ICOS-L variant Y8_P51Q” has as its target B2. The assay can be described thus: bio-layer interferometry (Octet R8), ICOS-Fc captured on Protein A biosensor, ICOS-L variant in solution; the table prints no units.
The target in the assay “ICOS-L variant Y8_H57N” is B4. Described as above.
The next assay concerns the target T1, wild-type ICOS-L (Homo sapiens (Human), UniProt O75144 19-256).
T1 construct: also called wild-type Inducible Co-Stimulator-ligand
T1 sequence: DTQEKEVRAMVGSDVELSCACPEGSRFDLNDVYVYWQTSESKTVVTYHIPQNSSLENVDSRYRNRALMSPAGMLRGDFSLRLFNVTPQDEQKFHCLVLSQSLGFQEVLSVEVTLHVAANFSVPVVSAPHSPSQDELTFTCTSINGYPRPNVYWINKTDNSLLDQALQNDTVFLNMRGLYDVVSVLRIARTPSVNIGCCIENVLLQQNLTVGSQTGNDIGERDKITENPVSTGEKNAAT
The assay is described as above.

For assay [5], the target named is T2, ATZ (H)-A184: ICOS-L A184 variant fused to the heavy chain of Atezolizumab with LALAPG mutation in the Fc … (Homo sapiens (Human), UniProt O75144 19-256).
T2 construct: Antibody-ligand fusion; ICOS-L at the C-terminal of the heavy chain; not shown: Atezolizumab heavy chain (VH plus IgG1 constant region with LALAPG), atezolizumab light chain, and any linker
T2 chain: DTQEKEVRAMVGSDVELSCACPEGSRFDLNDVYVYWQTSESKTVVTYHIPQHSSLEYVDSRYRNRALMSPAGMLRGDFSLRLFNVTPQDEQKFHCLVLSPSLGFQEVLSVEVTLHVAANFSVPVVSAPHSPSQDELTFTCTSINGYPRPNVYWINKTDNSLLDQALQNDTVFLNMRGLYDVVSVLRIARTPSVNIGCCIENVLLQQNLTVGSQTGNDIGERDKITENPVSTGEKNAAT
The assay can be described thus: sandwich ELISA, PD-L1-Fc coated at 40 nM, atezolizumab fusion captured at 200 nM, His-tagged ICOS monomer titrated, anti-His-HRP. The procedure: (§2) Specifically, 50 μl of 40 nM PD-L1-Fc in 0.05 M Na₂CO₃ (pH 9.6) was dispensed into a Flat Bottom Polystyrene High Bind 96-well microplate (Costar), immobilized at 4° C. for 16 hours, and then blocked with 100 μl of PBS (pH 7.4) containing 0.5% bovine serum albumin (BSA) (Gibco) for 2 hours at room temperature. […] After washing four times, 50 μl of an anti-His-HRP conjugate was added and reacted at room temperature for 1 hour, and then washed four times. Thereafter, 50 μl of a 1-Step Ultra TMB-ELISA substrate solution (Thermo Fisher Scientific, 34028) was added to develop color, and then added with 50 μl each of 2 M H₂SO₄ to terminate the reaction, and then analyzed using an Epoch microplate spectrophotometer (BioTek).

For assay [6], the target named is T3, ATZ (L)-Y8_H57N: ICOS-L Y8_H57N variant fused to the light chain of Atezolizumab with LALAPG mutation in the … (Homo sapiens (Human), UniProt O75144 19-256).
T3 construct: Antibody-ligand fusion; ICOS-L at the C-terminal of the light chain; not shown: Atezolizumab light chain (VL plus constant region), atezolizumab heavy chain with LALAPG, and any linker
T3 sequence: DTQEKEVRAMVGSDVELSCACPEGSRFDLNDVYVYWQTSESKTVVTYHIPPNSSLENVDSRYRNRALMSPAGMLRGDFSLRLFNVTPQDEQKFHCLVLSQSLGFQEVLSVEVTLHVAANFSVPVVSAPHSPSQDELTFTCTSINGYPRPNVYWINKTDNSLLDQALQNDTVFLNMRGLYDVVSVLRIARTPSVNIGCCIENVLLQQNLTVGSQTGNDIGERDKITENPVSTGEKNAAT
The description is as above. As to the method: as §2

Assay [7] addresses T4, ICOS-L variant Y8 fused to antibody Fc domain (LALAPG) (human, UniProt O75144 19-256).
T4 construct: also called Y8-Fc; not shown: human IgG1 Fc with L234A/L235A/P329G C-terminal to ICOS-L
T4 chain: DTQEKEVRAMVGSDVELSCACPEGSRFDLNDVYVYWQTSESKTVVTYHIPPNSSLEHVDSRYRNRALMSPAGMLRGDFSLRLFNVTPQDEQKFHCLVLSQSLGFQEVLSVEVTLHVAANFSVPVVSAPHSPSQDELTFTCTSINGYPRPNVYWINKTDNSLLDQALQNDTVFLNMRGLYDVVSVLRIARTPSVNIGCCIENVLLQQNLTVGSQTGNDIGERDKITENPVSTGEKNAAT
The experiment in a line: ELISA, ICOS-L-Fc coated at 4 ug/ml, His-tagged ICOS monomer titrated, anti-His-HRP. As to the method:
as §1

B1: A184 (ligand)
single chain: DTQEKEVRAMVGSDVELSCACPEGSRFDLNDVYVYWQTSESKTVVTYHIPQHSSLEYVDSRYRNRALMSPAGMLRGDFSLRLFNVTPQDEQKFHCLVLSPSLGFQEVLSVEVTLHVAANFSVPVVSAPHSPSQDELTFTCTSINGYPRPNVYWINKTDNSLLDQALQNDTVFLNMRGLYDVVSVLRIARTPSVNIGCCIENVLLQQNLTVGSQTGNDIGERDKITENPVSTGEKNAAT
notes: Soluble form without Fc; the Fc and atezolizumab fusions are m12, m15 and m18; also called control A184
Consider B1, for which the “INCREASED MULTIPLE” value in assay [1] stood at 4.89. Further, in assay [2], the “EC50 (read off the curve)” value is roughly 20 nM. In assay [3], binding was put at a Kd of 23.1 nM.
As to B2, the “INCREASED MULTIPLE” value in assay [1] stood at 4.85.

B3: ICOS-L variant Y8 (ligand)
chain: DTQEKEVRAMVGSDVELSCACPEGSRFDLNDVYVYWQTSESKTVVTYHIPPNSSLEHVDSRYRNRALMSPAGMLRGDFSLRLFNVTPQDEQKFHCLVLSQSLGFQEVLSVEVTLHVAANFSVPVVSAPHSPSQDELTFTCTSINGYPRPNVYWINKTDNSLLDQALQNDTVFLNMRGLYDVVSVLRIARTPSVNIGCCIENVLLQQNLTVGSQTGNDIGERDKITENPVSTGEKNAAT
For the molecule B3, the “INCREASED MULTIPLE” value in assay [1] amounted to 95. Also, the “EC50 (read off the curve)” value in [2] was roughly 6 nM; in assay [4], roughly 4 nM. Moreover, the affinity in [3], expressed as Kd, was 1.19 nM.
Turning to B4, the “INCREASED MULTIPLE” value in assay [1] stood at 23.8. The “EC50 (read off the curve)” value in assay [4] is roughly 10 nM.
Consider B5, for which the Kd with ICOS-L variant Y8_P51Q stood at 23.3 nM; with ICOS-L variant Y8_H57N it was 4.75 nM; in the assay with wild-type ICOS-L, 113 nM.

B6: ICOS monomer protein (ICOS E21-H129) (receptor, human, UniProt Q9Y6W8 21-129, looked up)
chain: EINGSANYEMFIFHNGGVQILCKYPDIVQQFKMQLLKGGQILCDLTKTKGSGNTVSIKSLKFCHSQLSNNSVSFFLYNLDHSHANYYFCNLSIFDPPPFKVTLTGGYLH
notes: range 21-129; also called wild-type ICOS
Regarding B6, the results for the “EC50 (read off the curve)” value in assay [5], in assay [6] and in [7] were roughly 5 nM, roughly 9 nM and roughly 4 nM, respectively.

Source of the values: patent US20250326816A1 (KOREA UNIVERSITY RESEARCH AND BUSINESS FOUNDATION, published 2025).
